Patent US20170008928A1, “NOVEL PEPTIDES AND PEPTIDE DERIVATIVES AND USES THEREOF” (Novo Nordisk A/S, priority 2015, published 2017)
Starred links: 1 amine or outer side, 2 acyl side, 3 side chain; linkers in the order of their positions; H or OH if unused. Non-standard residues stand in square brackets, D forms with d. No end group written: not given here. *: point of attachment. Phe(4-CH2SO3H) = N[C@@H](Cc1ccc(CS(=O)(=O)O)cc1)C(=O)O; sY = N[C@@H](Cc1ccc(OS(=O)(=O)O)cc1)C(=O)O; C18 diacid = O=C(O)CCCCCCCCCCCCCCCCC(=O)*; γGlu = O=C(O)[C@H](CCC(=O)[*:2])N[*:1]; βAsp = O=C(O)[C@H](CC(=O)[*:2])N[*:1]; Met(O2) = CS(=O)(=O)CC[C@H](N)C(=O)O; NMeF = CN[C@@H](Cc1ccccc1)C(=O)O; dNMeD = CN[C@H](CC(=O)O)C(=O)O; Nle = CCCC[C@H](N)C(=O)O; AEEA = NCCOCCOCC(=O)O

T1: human cholecystokinin-1 receptor (human, UniProt P32238 1-428)
T1 sequence (looked up): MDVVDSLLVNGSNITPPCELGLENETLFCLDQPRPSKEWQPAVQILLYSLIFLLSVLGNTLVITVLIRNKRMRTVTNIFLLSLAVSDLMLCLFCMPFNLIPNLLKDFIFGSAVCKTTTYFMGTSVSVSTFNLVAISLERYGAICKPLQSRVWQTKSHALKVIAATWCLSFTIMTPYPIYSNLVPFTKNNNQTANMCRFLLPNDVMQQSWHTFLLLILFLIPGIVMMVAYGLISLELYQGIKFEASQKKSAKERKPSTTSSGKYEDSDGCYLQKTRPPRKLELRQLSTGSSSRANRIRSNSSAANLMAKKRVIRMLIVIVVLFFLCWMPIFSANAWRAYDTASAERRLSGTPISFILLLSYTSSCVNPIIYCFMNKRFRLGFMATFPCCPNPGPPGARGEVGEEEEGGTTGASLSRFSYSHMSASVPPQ

T2: human cholecystokinin-2 receptor (human, UniProt P32239 1-447)
T2 sequence (looked up): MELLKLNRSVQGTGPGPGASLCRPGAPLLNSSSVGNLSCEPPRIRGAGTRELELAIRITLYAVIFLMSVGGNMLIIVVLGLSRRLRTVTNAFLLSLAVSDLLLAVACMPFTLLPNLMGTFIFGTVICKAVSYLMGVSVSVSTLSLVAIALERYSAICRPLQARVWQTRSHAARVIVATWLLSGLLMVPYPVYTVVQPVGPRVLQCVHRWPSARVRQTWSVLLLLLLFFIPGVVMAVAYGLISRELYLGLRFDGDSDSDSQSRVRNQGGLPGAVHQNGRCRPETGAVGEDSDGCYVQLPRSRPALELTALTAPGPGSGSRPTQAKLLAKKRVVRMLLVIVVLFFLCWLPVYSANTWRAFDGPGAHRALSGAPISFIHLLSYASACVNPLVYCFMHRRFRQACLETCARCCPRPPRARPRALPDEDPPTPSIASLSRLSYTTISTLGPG

B1: sTyr-Nle-Gly-Trp-Nle-DMeAsp-MePhe-amide (peptide)
peptide: [sY][Nle]GW[Nle][dNMeD][NMeF]-NH2
modifications: N-terminus assumed
SMILES: CCCC[C@H](NC(=O)[C@@H](N)Cc1ccc(OS(=O)(=O)O)cc1)C(=O)NCC(=O)N[C@@H](Cc1c[nH]c2ccccc12)C(=O)N[C@@H](CCCC)C(=O)N(C)[C@H](CC(=O)O)C(=O)N(C)[C@@H](Cc1ccccc1)C(N)=O
notes: X = Nle or Nal
B2: 2-[2-[2-[[2-[2-[2-[[(4S)-4-Carboxy-4-(17-carboxyheptadecanoylamino)butanoyl]amino]ethoxy]ethoxy]acetyl]amino]ethoxy]ethoxy]acetyl-bAsp-Phe(4-sulfomethyl)-Nle-Gl … (peptide)
peptide: {C18 diacid-γGlu-AEEA-AEEA}-[βAsp][Phe(4-CH2SO3H)][Nle]GW[Nle][dNMeD][NMeF]-NH2
SMILES: CCCC[C@H](NC(=O)[C@H](Cc1ccc(CS(=O)(=O)O)cc1)NC(=O)C[C@H](NC(=O)COCCOCCNC(=O)COCCOCCNC(=O)CC[C@H](NC(=O)CCCCCCCCCCCCCCCCC(=O)O)C(=O)O)C(=O)O)C(=O)NCC(=O)N[C@@H](Cc1c[nH]c2ccccc12)C(=O)N[C@@H](CCCC)C(=O)N(C)[C@H](CC(=O)O)C(=O)N(C)[C@@H](Cc1ccccc1)C(N)=O
notes: X = Nle or Nal
B3: Asp-Phe(4-sulfomethyl)-Nle-Gly-Trp-Nle-DMeAsp-MePhe-amide (peptide)
peptide: D[Phe(4-CH2SO3H)][Nle]GW[Nle][dNMeD][NMeF]-NH2
modifications: N-terminus assumed
SMILES: CCCC[C@H](NC(=O)[C@H](Cc1ccc(CS(=O)(=O)O)cc1)NC(=O)[C@@H](N)CC(=O)O)C(=O)NCC(=O)N[C@@H](Cc1c[nH]c2ccccc12)C(=O)N[C@@H](CCCC)C(=O)N(C)[C@H](CC(=O)O)C(=O)N(C)[C@@H](Cc1ccccc1)C(N)=O
notes: X = Nle or Nal
B4: Asp-sTyr-Ala-Gly-Trp-Nle-DMeAsp-MePhe-amide (peptide)
peptide: D[sY]AGW[Nle][dNMeD][NMeF]-NH2
modifications: N-terminus assumed
SMILES: CCCC[C@H](NC(=O)[C@H](Cc1c[nH]c2ccccc12)NC(=O)CNC(=O)[C@H](C)NC(=O)[C@H](Cc1ccc(OS(=O)(=O)O)cc1)NC(=O)[C@@H](N)CC(=O)O)C(=O)N(C)[C@H](CC(=O)O)C(=O)N(C)[C@@H](Cc1ccccc1)C(N)=O
notes: X = Nle or Nal
B5: Asp-sTyr-Lys-Gly-Trp-Nle-DMeAsp-MePhe-amide (peptide)
peptide: D[sY]KGW[Nle][dNMeD][NMeF]-NH2
modifications: N-terminus assumed
SMILES: CCCC[C@H](NC(=O)[C@H](Cc1c[nH]c2ccccc12)NC(=O)CNC(=O)[C@H](CCCCN)NC(=O)[C@H](Cc1ccc(OS(=O)(=O)O)cc1)NC(=O)[C@@H](N)CC(=O)O)C(=O)N(C)[C@H](CC(=O)O)C(=O)N(C)[C@@H](Cc1ccccc1)C(N)=O
notes: X = Nle or Nal

Tests used:
[1] = target: T1, human cholecystokinin-1 receptor; experiment: cell-based or functional assay
[2] = target: T2, human cholecystokinin-2 receptor; experiment: cell-based or functional assay
[3] = target: T1, human cholecystokinin-1 receptor; experiment: SPA competition vs [125I]-CCK-8s, membranes
Description: (§1) CCK receptor binding assays were performed in 96-well Optiplates (Cat #6005290, PerkinElmer, Waltham, Mass., USA) in a total volume of 200 μl per well.
(§2) The plates were sealed and incubated in the dark at +22° C. for 2 hours on a IKA MTS plate shaker (IKA-Werke D-79219 Staufen) set at 300 rpm and thereafter centrifuged at 1500 rpm for 10 minutes in a Heraeus Multifuge 3s centrifuge. SPA bead light emission was measured in a TopCount NXT (PerkinElmer) for 2 min/well after a delay of 60 min.

[4] = target: T2, human cholecystokinin-2 receptor; experiment: SPA competition vs [125I]-CCK-8s, membranes
Description: as §1, §2

Binder	EC50 (CCK-1R) [1] [nM]	EC50 (CCK-2R) [2] [nM]	IC50 [3] [nM]	IC50 [4] [nM]
B1	0.33	> 1000	0.06	
B2	0.36		0.063	
{C18 diacid-γGlu-AEEA-AEEA}-K[AEEA]D[Phe(4-CH2SO3H)][Nle]GW[Nle][dNMeD][NMeF]-NH2 (X = Nle or Nal)			0.081	7400
B3	0.25	> 1000	0.046	
{C18 diacid-γGlu-AEEA-AEEA}-D[sY]KGW[Nle][dNMeD][NMeF]-NH2 (X = Nle or Nal)	0.36	310	0.099	
B4	0.16	> 1000	0.055	
B5	0.26	> 1000	0.03	
{C18 diacid-γGlu-AEEA-AEEA}-D[sY]LGW[Met(O2)][dNMeD][NMeF]-NH2	0.14	> 1000	0.64	
{C18 diacid-γGlu-AEEA-AEEA}-E[sY]LGWQ[dNMeD][NMeF]-NH2	0.22	> 1000	0.097	
